From patent US20260055150

What was measured:
[1] = molecular target: mutant p53 (bacterially purified, commercial), P04637
[2] = molecular target: wild type p53 (bacterially purified, commercial), P04637

B1: GRAIL C-terminal fragment (amino acids 229-428), recombinant (protein)
chain: YSARRLRNARAQSRKQRQLKADAKKAIGRLQLRTLKQGDKEIGPDGDSCAVCIELYKPNDLVRILTCNHIFHKTCVDPWLLEHRTCPMCKCDILKALGIEVDVEDGSVSLQVPVSNEISNSASSHEEDNRSETASSGYASVQGTDEPPLEEHVQSTNESLQLVNHEANSVAVDVIPHVDNPTFEEDETPNQETAVREIKS
in vitro ubiquitination assay (UBE1, UBCH5, Myc-tagged ubiquitin), immunoblot [1]: a C-terminal RF containing GRAIL fragment is efficient in polyubiquitinating mutant p53 as compared to wild type protein
in vitro ubiquitination assay (UBE1, UBCH5, Myc-tagged ubiquitin), immunoblot [2]: a C-terminal RF containing GRAIL fragment is efficient in polyubiquitinating mutant p53 as compared to wild type protein
